Laboratory results from patent US12447201B2, “Immunogenic compounds for cancer therapy” (priority 2016, dated 2025).

How the values were obtained:
HLA-A*0201 = biological target: T1, HLA-A*0201 (Homo sapiens, UniProt P04439, D140Y/D185E/D98H/E176V/E277Q/G131W/G231S/I119V/I121R/I166T/I218V/L300P/L318F/N151K/N90K/P208A/P217A/Q86G/Q94H/R138H/R169H/T345S); experiment: Affinity of the peptide to HLA-A*0201 measured on T2 cell line (FACS, anti-HLA-A2 labelling); assay type: binding; conditions: for binding to HLA-A*0201 / affinity to HLA-A*0201 compared with the peptide 1A9V: Example 3, FIG. 4, T2 cells; for peptide concentration inducing 20% of expression of the HLA-A*0201: T2 cells
T1 construct: human tumoral cell T2 which expresses the HLA-A*0201 molecule, but which is TAP1/2 negative; endogenous in cells; host or cells: T2 cells (human, TAP1/2 negative)
From the text: The experimental protocol is similar to the one that was validated for peptides presented by the HLA-A*0201 (Tourdot et al., A general strategy to enhance immunogenicity of low-affinity HLA-A2.1-associated peptides: implication in the identification of cryptic tumor epitopes. Eur J Immunol. 2000 December; 30 (12): 3411-21). Affinity measurement of the peptides is achieved with the human tumoral cell T2 which expresses the HLA-A*0201 molecule, but which is TAP1/2 negative and incapable of presenting endogenous peptides.
T2 cells (2.10^5 cells per well) are incubated with decreasing concentrations of peptides from 100 μM to 0.1 μM in a AIMV medium supplemented with 100 ng/μl of human β2m at 37° C. for 16 hours. Cells are then washed two times and marked with the anti-HLA-A2 antibody coupled to PE (clone BB7.2, BD Pharmagen).
The analysis is achieved by FACS (Guava Easy Cyte).
For each peptide concentration, the geometric mean of the labelling associated with the peptide of interest is substracted from background noise and reported as a percentage of the geometric mean of the […] labelling obtained for the reference peptide HIV pol 589-597 at a concentration of 100 μM. The relative affinity is then determined as follows: relative affinity=concentration of each peptide inducing 20% of expression of HLA-A*0201/concentration of the reference peptide inducing 20% of expression of HLA-A*0201. A2. Solubilisation of Peptides
The experimental protocol was similar to the one that was validated for peptides presented by the HLA-A*0201 (Tourdot et al., A general strategy to enhance immunogenicity of low-affinity HLA-A2.1-associated peptides: implication in the identification of cryptic tumor epitopes. Eur J Immunol. 2000 December; 30 (12): 3411-21).
T2 cells (2.10^5 cells per well) were incubated with decreasing concentrations of peptides from 100 μM to 0.1 μM in a AIMV medium supplemented with 100 ng/μl of human β2m at 37° C. for 16 hours. Cells were then washed two times and marked with the anti-HLA-A2 antibody coupled to PE (clone BB7.2, BD Pharmagen).
The analysis was achieved by FACS (Guava Easy Cyte).
For each peptide concentration, the geometric mean of the labelling associated with the peptide of interest was subtracted from background noise and reported as a percentage of the geometric mean of the […] labelling obtained for the reference peptide HIV pol 589-597 at a concentration of 100 μM. The relative affinity is then determined as follows: relative affinity=concentration of each peptide inducing 20% of expression of HLA-A*0201/concentration of the reference peptide inducing 20% of expression of HLA-A*0201. A2. Solubilisation of Peptides
The experimental protocol, materials and methods correspond to those outlined in Example 3, with the only difference that the above mentioned antigenic peptides were used.

β/A2/DR3 mice = experiment: ELISPOT-IFNγ assay on splenocytes of vaccinated β/A2/DR3 mice; assay type: in vivo, mouse; conditions: as compared to IL13RA2-H-vaccinated animals (group 2)

Row | Sequence | binding to HLA-A*0201 (HLA-A*0201) | affinity to HLA-A*0201 compared with the peptide 1A9V (HLA-A*0201) | peptide concentration inducing 20% of expression of the HLA-A*0201 (HLA-A*0201) | T cell responses in the ELISPOT-IFNγ assay after vaccination (β/A2/DR3 mice)
1 | CLYTFLIST [IL13RA2-H2, reference compound] | do not bind to or show much lower affinity |  |  | 
2 | FLPFGFILV [IL13RA2-B] | bind strongly | higher affinity | 4.4 µM | improved T cell responses
3 | WLPFGFILI [IL13RA2-H, reference compound] | do not bind to or show much lower affinity |  | 100 UM | 
4 | YLYTFLIST [IL13RA2-B2] | bind strongly | higher affinity |  | 
